Positions count from the first letter of the chain named.
B1: DARPin #38 (designed binder)
chain: MRGSHHHHHHGSDLGKKLLEAARAGQDDEVRILMANGADVNATDANGFTPLHLAAFYGHLEIVEVLLKYGADVNAYDNFGLTPLHLAASYGHLEIVEVLLKNGADVYAQDKFGKTAFDISIDNGNEDLAEILQKLN
B2: DARPin #58 (designed binder)
chain: MRGSHHHHHHGSDLGKKLLEAARAGQDDEVRILMANGADVNAHDYVGLTPLHLAASIGHLEIVEVLLKYGADVNASDYNGFTPLYLAANNGHLEIVEVLLKNGADVNATDSFGYTPLHLAAHYGHLEIVEVLLKNGADVNAQDKFGKTAFDISIDNGNEDLAEILQKLN
B3: DARPin #61 (designed binder)
chain: MRGSHHHHHHGSDLGKKLLEAARAGQDDEVRILMANGADVNAEDYLGHTPLHLAASTGHLEIVEVLLKYGADVNAKDRNGLTPLYLAANNGHLEIVEDLLKYGADVNADDDNGTTPLHLAAIFGHLEIVEVLLKYGADVNAQDKFGKTAFDISIDNGNEDLAEILQKLN
B4: DARPin #33 (designed binder)
chain: MRGSHHHHHHGSDLGKKLLEAARAGQDDEVRILMANGADVNAHDYSGFTPLHLAAYYGHLEIVEVLLKHGADVNAFDDWGHTPLHLAARYGHLEIVEVLLKYGADVNAEDTEGYTPLHLAAMDGHLEIVEVLLKNGADVNAQDKFGKTAFDISIDNGNEDLAEILQKLN
B5: DARPin #48 (designed binder)
chain: MRGSHHHHHHGSDLGKKLLEAARAGQDDEVRILMANGADVNAKDRFGDTPLHLAADIGHLKIVEVLLKHGADVNAEDWFGNTPLHLAASMGHLEIVEVLLKYGADVNAMDDYGNTPLHLAANTGHLEIVEVLLKHGADVNAQDKFGKTAFDISIDNGNEDLAEILQKLN
B6: DARPin #37 (designed binder)
chain: MRGSHHHHHHGSDLGKKLLEAARAGQDDEVRILMANGADVNATDLTGFTPLHLAAYYGHLEIVEVLLKYGADVNADDRYGLTPLHLAANTGHLEIVEVLLKNGADVNASDSVGTTLLHLAAYIGHPEIVEVLLKYGADVNAQDKFGKTAFDISIDNGNEDLAEILQKLN
B7: DARPin #42 (designed binder)
chain: MRGSHHHHHHGSDLGKKLLEAARAGQDDEVRILMANGADVNAKYEDGLTPLHLAAFYGHLEIVEVLLKHGADVNATDAWGHTPLHLAAHYGHLEIVEVLLKYGADVNAIDTLGYTPLHLAANFGHLEIVEVLLKNGADVNAQDKFGKTAFDISIDNGNEDLAEILQKLN
B8: DARPin #41 (designed binder)
chain: B7 chain with K68R, H89Y, Y90L, I109E, L112E, N122M, F123D, V129I, N135H
B9: DARPin #43 (designed binder)
chain: B7 chain with H89Y, A108T, I109H, T111K, L112E, Y114M, P116A, N122L, F123T
B10: DARPin #60 (designed binder)
chain: MRGSHHHHHHGSDLGMKLLEAARAGQDDEVRILMANGADVNAHDTWGLTPLHLAAFHGHQEIVEVLLKHGADVNAQDFYGKTPLHLAALRGHLEIVEVLLKYGADVNAQDQFGKTAFDISIDNGNEDLAEILQKLN
B11: DARPin #57 (designed binder)
chain: MRGSHHHHHHGSDLGKKLLEAARAGQDDEVRILMANGADVNAHDYLGLTPLHLAASDGHLEIVEVLLKHGADVNAYDYNGLTPLHLAANNGHLEIVEVLLKYGADVNAFDVAGYTPLHLAAYFGHLEIVEVLLKYGADVNAQDKFGKTAFDISIDNGNEDLAEILQKLN
B12: DARPin #51 (designed binder)
chain: MRGSHHHHHHGSDLGKKLLEAARAGQDDEVRILLKAGADVNAKDRYGDTPLHLAADIGHLEIVEVLLKAGADVNAEDYFGNTPLHLAASYGHLEIVEVLLKAGADVNAKDDYGNTPLHLAANTGHLEIVEVLLKAGADVNAQDKSGKTPADLAADAGHEDIAEVLQKLN
B13: DARPin #59 (designed binder)
chain: MRGSHHHHHHGSDLGKKLLEAARAGQDDEVRILMANGADVNADDSLGLTPLHLAAASGHLEIVEVLLKNGADVNAVDQNSFTPLYLAANNGHLEIVEVLLKNGADVNAFDWHGTTPLHLAAMFGHLEIVEVLLKNGADVNAQDKFGKTAFDISIDNGNEDLAEILQKLN
B14: DARPin #56 (designed binder)
chain: MRGSHHHHHHGSDLGKKLLEAARAGQDDEVRILMANGADVNANDFLGLTPLHLAASTGHLEIVEVLLKYGADVNAIDAYGHTPLHLAANNGHLEIVEVLLKYGADVNAIDHFGYTPLHLAAMFGHLEIVEVLLKNGADVNAQDKFGKTAFDISIDNGNEDLAEILQKLN

biological target: T1, recombinant human HGF (hepatocyte growth factor) (human, UniProt P14210 32-728); test: cell-based or functional assay
T1 sequence (P14210 32-728 limits assumed): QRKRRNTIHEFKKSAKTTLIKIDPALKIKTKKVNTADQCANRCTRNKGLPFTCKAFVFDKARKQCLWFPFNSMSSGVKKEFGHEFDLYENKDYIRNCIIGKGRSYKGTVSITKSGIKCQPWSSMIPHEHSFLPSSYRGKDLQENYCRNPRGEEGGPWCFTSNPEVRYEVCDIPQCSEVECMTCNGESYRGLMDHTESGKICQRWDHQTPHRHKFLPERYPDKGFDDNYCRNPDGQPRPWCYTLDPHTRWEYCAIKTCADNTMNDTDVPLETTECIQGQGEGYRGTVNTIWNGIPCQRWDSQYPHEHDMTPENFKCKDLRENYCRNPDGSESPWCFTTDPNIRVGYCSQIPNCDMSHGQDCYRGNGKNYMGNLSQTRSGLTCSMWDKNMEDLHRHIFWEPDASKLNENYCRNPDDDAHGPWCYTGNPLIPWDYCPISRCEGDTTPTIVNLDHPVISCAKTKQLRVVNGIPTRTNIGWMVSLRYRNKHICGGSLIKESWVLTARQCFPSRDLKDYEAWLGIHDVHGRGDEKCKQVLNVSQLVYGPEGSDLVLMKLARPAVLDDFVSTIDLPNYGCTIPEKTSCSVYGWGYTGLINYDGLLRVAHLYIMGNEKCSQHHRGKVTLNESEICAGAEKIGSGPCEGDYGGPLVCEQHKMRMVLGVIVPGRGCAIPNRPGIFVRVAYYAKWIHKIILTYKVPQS

Binder | % inhibition of HGF stimulated c-Met phosphorylation in A549 cells | IC50 of HGF stimulated c-Met phosphorylation in A549 cells
B1 | 88% | 2.59 nM
B2 | 89% | 1.63 nM
B3 | 82% | 0.39 nM
B4 | 100% | 0.2 nM
B5 | 95% | 0.1 nM
B6 | 95% | 0.07 nM
B7 | 98% | 0.32 nM
B8 | 99% | 0.13 nM
B9 | 101% | 0.16 nM
B10 | 94% | 0.05 nM
B11 | 100% | 1.72 nM
B12 | 81% | 0.01 nM
B13 | 100% | 0.85 nM
B14 | 72% | 0.53 nM

biological target: T1, recombinant human HGF (hepatocyte …); test: SPR (ProteOn), human HGF immobilized on GLC chip, DARPin injected, PBS 0.005% Tween 20
Protocol: SPR was measured using a ProteOn instrument (BioRad) and measurement was performed according standard procedures known to the person skilled in the art. The running buffer was PBS, pH 7.4, containing 0.005% Tween 20®. Human HGF was covalently immobilized on a GLC chip (BioRad) to a level of about 5000 resonance units (RU). The interaction of DARPin and HGF was then measured by injecting 200 μl running buffer (PBS containing 0.005% Tween®) containing serial dilutions of DARPins of concentration of […] (on-rate measurement), followed by a running buffer flow for 25 minutes at a constant flow rate of 100 μl/min (off-rate measurement). The signals (i.e. resonance unit (RU) values) of the interspots and a reference injection (i.e. injection of running buffer only) were subtracted from the RU traces obtained after injection of DARPin (double-referencing). From the SPR traces obtained from the on-rate and off-rate measurements the on- and off-rate of the corresponding DARPin HGF interaction can be determined. […] Dissociation constants (Kd) were calculated from the estimated on- and off-rates using standard procedures known to the person skilled in the art. […] As an example, Table 1 summarizes the Kd values for some of the selected DARPins.

Binder | Kd
B1 | 1.6 nM
B2 | 0.578 nM
B3 | 0.16 nM
B4 | 0.148 nM
B5 | 0.016 nM
B6 | 0.011 nM
B7 | 0.084 nM
B9 | 0.025 nM
B10 | 0.026 nM
B11 | 16.6 nM
B12 | 0.051 nM
B13 | 0.528 nM
B14 | 0.736 nM

biological target: T1, recombinant human HGF (hepatocyte …); test: cell-based or functional assay; remark: another data set of the same source

Binder | IC50 of U87 cell proliferation (BrdU)
B4 | 137 nM
B6 | 400 nM
B7 | 82 nM
B8 | 113 nM
B9 | 71 nM
B10 | 78 nM
B11 | 730 nM
B12 | 116 nM
B13 | 3280 nM

biological target: T1, recombinant human HGF (hepatocyte …); test: receptor competition ELISA: DARPin premixed with human HGF, binding of HGF to coated c-Met Fc chimera detected with anti-HGF antibody
Protocol: The potency of anti-HGF DARPins to inhibit the binding of human HGF to its receptor c-Met was determined in a receptor competition ELISA. c-Met (Fc chimera; RnD systems, USA, 358-MT-100/CF) was pre-coated on a microplate. DARPins and HGF were premixed in PBSTC and incubated at room temperature for 0.5 hours. These preincubation mixtures were then transferred into the with c-Met precoated wells and any HGF that was not blocked by the DARPins was bound by the immobilized receptor. After washing away any unbound substances, an polyclonal antibody specific for HGF (RnD systems, USA, AF-294-NA) was added to the wells. After washing away any unbound substances, an horse radish peroxidase conjugated antibody (Novus Biologicals, USA, NB7357) binding to the polyclonal antibody specific for HGF was added to the wells. Following a wash to remove any unbound antibody-enzyme reagent, a substrate solution (Roche, Switzerland, 11484281001) was added to the wells and color was developing in proportion to the amount of HGF bound. The color development was stopped and the intensity of the color was measured at 405 nm. […] Example titration curves are given for a set of DARPins in FIG. 5. IC₅₀ values were calculated from such titration curves obtained as described above using standard procedures known to the person skilled in the art.

Binder | IC50
B5 | 0.91 nM
B6 | 1.33 nM
B9 | 1.36 nM
B10 | 0.95 nM
B11 | 1.71 nM
B12 | 0.62 nM

biological target: T1, recombinant human HGF (hepatocyte …); test: cell-based or functional assay; remark: another data set of the same source

Binder | IC50 of U87 cell proliferation (BrdU)
B9 | 72 nM

— US20160251404A1 (Molecular Partners, published 2016)
